Sequences and labels used below:
B1: SK to RI (VHH)
VHH: TRVDQTPRTATKETGESLTINCVLRDASYAVGSTCWFRKNPGTTDEERISIGGRYVESVNKGAKSFSLRIKDLTVADSATYYCGVSTYNWCGVRGLGCVHGACGDGTALTVK
B2: SP15-096-13 (VHH)
VHH: B1 VHH with E46W
B3: EK to WI (VHH)
VHH: B1 VHH with E46W, R48S
B4: K to I (VHH)
VHH: B1 VHH with R48S
B5: SP15-096-123 (VHH)
VHH: B1 VHH with R48S, I51K
B6: E to W (VHH)
VHH: B1 VHH with E46W, R48S, I51K
B7: ES to WR (VHH)
VHH: B1 VHH with E46W, I51K
B8: S to R (VHH)
VHH: B1 VHH with I51K
B9: DSTL096 (VHH)
VHH: RVDQTPRSVTKETGESLTINCVLRDASYAVGSTCWYRKKSGSTNEESISKGGRYVETVNSGSKSFSLRINDLTVEDGGTYRCGVSTYNWCGVRGLGCVHGACGDGTAVTVN

In general, Kd refers to a measure of binding affinity in units of concentration.

Changes are numbered by the printed parent chain.

Sequence of Ebola virus nucleoprotein, recombinant construct consisting of the C-terminal portion of NP (Ebola virus (EBOV; formerly the Zaire ebolavirus)) (P18272 641-739 limits assumed): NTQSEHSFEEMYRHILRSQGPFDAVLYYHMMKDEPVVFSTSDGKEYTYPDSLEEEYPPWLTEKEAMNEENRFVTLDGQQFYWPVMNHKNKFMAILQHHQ

This test has as its target Ebola virus nucleoprotein, recombinant construct consisting of the C-terminal portion of NP (Ebola virus (EBOV; formerly the Zaire ebolavirus)). The test can be described thus: SPR; ProteOn XPR36; […] (10 mM acetate pH 5.0); […]; Langmuir model. For orientation: SPR reads the build-up and loss of mass on a sensor chip optically.
Regarding B1, the dissociation constant Kd is 22 nM.

In the case of B2, the Kd was determined as 27 nM. Next, B3: 3.6 nM; B4: 2.2 nM; B5: 0.37 nM. Regarding B6, the dissociation constant (Kd) worked out at 0.34 nM.

With B7, the dissociation constant Kd turned out to be 12 nM. Regarding B8, the Kd came out at 2.3 nM. For B9, the Kd was determined as 0.39 nM.

(Values after PMC4975481.)
